Data: patent publication US5726147A, “Human mutant tissue factor compositions useful as tissue factor antagonists” (priority 1995, dated 1998)
Substitutions are numbered along the chain they refer to.

B1: Ile-22 to Ala: full-length human tissue factor mutant, Ile-22 replaced by alanine (protein, UniProt P13726 1-295, looked up, variant I22A)
chain: METPAWPRVPRPETAVARTLLLGWVFAQVAGASGTTNTVAAYNLTWKSTNFKTALEWEPKPVNQVYTVQISTKSGDWKSKCFYTTDTECDLTDEIVKDVKQTYLARVFSYPAGNVESTGSAGEPLYENSPEFTPYLETNLGQPTIQSFEQVGTKVNVTVEDERTLVRRNNTFLSLRDVFGKDLIYTLYYWKSSSSGKKTAKTNTNEFLIDVDKGENYCFSVQAVIPSRTVNRKSTDSPVECMGQEKGEFREIFYIIGAVVFVVIILVIILAISLHKCRKAGVGQSWKENSPLNVS
modifications: full-length
notes: full-length human tissue factor mutant, Ile-22 replaced by alanine
B2: S16-T17-K20: human tissue factor triple mutant with alanine at positions 16, 17 and 20 (protein, UniProt P13726 33-295, looked up, variant S16A T17A K20A)
Tissue factor: SGTTNTVAAYNLTWKAANFATILEWEPKPVNQVYTVQISTKSGDWKSKCFYTTDTECDLTDEIVKDVKQTYLARVFSYPAGNVESTGSAGEPLYENSPEFTPYLETNLGQPTIQSFEQVGTKVNVTVEDERTLVRRNNTFLSLRDVFGKDLIYTLYYWKSSSSGKKTAKTNTNEFLIDVDKGENYCFSVQAVIPSRTVNRKSTDSPVECMGQEKGEFREIFYIIGAVVFVVIILVIILAISLHKCRKAGVGQSWKENSPLNVS
B3: K65-D66-K68: human tissue factor triple alanine mutant at positions 65, 66 and 68 (protein, UniProt P13726 33-295, looked up, variant K65A D66A K68A)
Tissue factor: B2 Tissue factor with A16S, A17T, A20K, K65A, D66A, K68A
B4: Phe-140: human tissue factor mutant, Phe-140 substituted by Ala (protein, UniProt P13726 33-295, looked up, variant F140A)
Tissue factor: B2 Tissue factor with A16S, A17T, A20K, F140A
B5: Arg-131: human tissue factor mutant, Arg-131 exchanged for alanine (protein, UniProt P13726 33-295, looked up, variant R131A)
Tissue factor: B2 Tissue factor with A16S, A17T, A20K, R131A
B6: Arg-135: human tissue factor mutant, Arg-135 substituted by Ala (protein, UniProt P13726 33-295, looked up, variant R135A)
Tissue factor: B2 Tissue factor with A16S, A17T, A20K, R135A
B7: Arg-136: human tissue factor mutant, Arg-136 exchanged for alanine (protein, UniProt P13726 33-295, looked up, variant R136A)
Tissue factor: B2 Tissue factor with A16S, A17T, A20K, R136A
B8: Thr-139/Ser-142: human tissue factor mutant, Thr-139 and Ser-142 exchanged for alanine (protein, UniProt P13726 33-295, looked up, variant T139A S142A)
Tissue factor: B2 Tissue factor with A16S, A17T, A20K, T139A, S142A
B9: Asp-58 to Ala: human tissue factor mutant, Asp-58 to Ala exchange (EN-strand) (protein, UniProt P13726 33-295, looked up, variant D58A)
Tissue factor: B2 Tissue factor with A16S, A17T, A20K, D58A
B10: Val-64/Tyr-71 to Ala: human tissue factor Val-64/Tyr-71 to Ala double mutant (protein, UniProt P13726 33-295, looked up, variant V64A Y71A)
Tissue factor: B2 Tissue factor with A16S, A17T, A20K, V64A, Y71A
B11: Arg-196: human tissue factor mutant, Arg-196 replacement by alanine in the Fc-Gc-loop (protein, UniProt P13726 33-295, looked up, variant R196A)
Tissue factor: B2 Tissue factor with A16S, A17T, A20K, R196A
B12: R44: mhuTF in which arginine is substituted in place of D44 (protein, UniProt P13726 33-295, looked up, variant D44R)
Tissue factor: B2 Tissue factor with A16S, A17T, A20K, D44R

Experiments:
Assay type in all cases: biochemical
[1] = system: coagulation in recalcified plasma; experiment: One stage clotting (coagulation) assay of specific functional activity of full-length TF mutants in CHO cell lysates; details: full-length Ala mutant expressed in CHO cells, cell lysate, coagulant activity normalized to antigen, relative to wild-type TF
Procedure: The full-length TF mutants prepared above were analyzed for function by coagulation assay. […] Coagulation factor deficient plasmas were purchased from George King Bio-medical. The chromogenic substrate, Spectrozyme FXa, was from American Diagnostica Inc. (Greenwich, Conn.).
An alternative approach was to use a polyvalent antibody purified by affinity for capturing TF followed by detection with the TF8-5G9 monoclonal antibody described above.
Initiation of coagulation by wild-type and mutant TF in recalcified plasma was determined after lysis of cell pellets from 2×10^6 cells/ml for each expressed full-length mutant with 15 mM octyl-glucopyranoside in HBS for 15 minutes at 37 C. followed by a 3-fold dilution.
All data represented are based on at least three independent determinations performed in duplicate.

recombinant VIIa = experiment: Linked chromogenic assay with purified VIIa and factor X, apparent dissociation constant of the TF-VIIa interaction; details: for change in KDapp for the TF-VIIa interaction compared to wild-type TF (ratio KD mutant/KD wild-type): full-length Ala mutants, linked chromogenic assay; for binding of Factor VIIa: triple alanine mutants
Procedure: (§1) The lysate was prepared by treating cell pellets with 15 mM octyl-glucopyranoside for 15 minutes at 37 C. followed by a 3-fold dilution. […] Formed TF-VIIa complexes were quantified with substrate factor X added at 100 nM for a fixed time. Samples were then removed from the reaction and quenched in 100 mM EDTA in TBS (20 mM Tris-HCl 140 mM NaCl, pH 7.4). […] The rate of Spectrozyme hydrolysis, measured as the increase in absorbance (mOD/min), was determined at ambient temperature in a kinetic plate reader (Molecular Devices, Mountain View, Calif.) followed by quenching and monitoring of product factor Xa formation using the Spectrozyme FXa.
Enzfitter (Elsevier Biosoft) programs were employed to calculate the KDapp from the experimentally determined bound VIIa, and free VIIa which was obtained by subtracting bound VIIa from the initial VIIa concentration.

Factor X = experiment: Functional cleavage of Factor X by the TF-VIIa complex (reaction rate Vmax), D44 mutants
Procedure: as §1
Additional mhuTF mutants were prepared based on amino acid residue substitutions at amino acid residue position number D44.

Row | Molecule | loss of function (reduction in specific functional activity as % of wild-type activity) [1] | change in KDapp for the TF-VIIa interaction compared to wild-type TF (ratio KD mutant/KD wild-type) (recombinant VIIa) | further results
1 | B1 | 35% | 11 fold | 
2 | B2 | 98% |  | binding of Factor VIIa (recombinant VIIa): not substantially bind Factor VIIa
3 | B3 | 70% |  | binding of Factor VIIa (recombinant VIIa): not substantially bind Factor VIIa
4 | B4 | 30-50% | 18 fold | 
5 | B5 | 30-50% |  | 
6 | B6 | 30-50% | 7.4 fold | 
7 | B7 | 30-50% |  | 
8 | B8 | 30-50% |  | 
9 | B9 |  | 41 fold | 
10 | B10 |  | 2.1 fold | 
11 | B11 |  | 3.5 fold | 
12 | B12 |  |  | loss of function (specific functional activity, Vmax) compared to wild-type (Factor X; calculated from Vmax rates): 75%; reaction rate (Vmax) (Factor X; cleavage of Factor X): ~0.5 per second
